Results on 2 sequences are retold here after the supplement of paper PMC6379048.

The Kd is the concentration at which binding is half-saturated. Low readings indicate higher affinity, high ones lower affinity.

Holding throughout (experiment): Kd (EC50 corrected by depletion factor)
For one data set, the target named is T1, SF3B3 (UniProt Q15393).
T1 sequence: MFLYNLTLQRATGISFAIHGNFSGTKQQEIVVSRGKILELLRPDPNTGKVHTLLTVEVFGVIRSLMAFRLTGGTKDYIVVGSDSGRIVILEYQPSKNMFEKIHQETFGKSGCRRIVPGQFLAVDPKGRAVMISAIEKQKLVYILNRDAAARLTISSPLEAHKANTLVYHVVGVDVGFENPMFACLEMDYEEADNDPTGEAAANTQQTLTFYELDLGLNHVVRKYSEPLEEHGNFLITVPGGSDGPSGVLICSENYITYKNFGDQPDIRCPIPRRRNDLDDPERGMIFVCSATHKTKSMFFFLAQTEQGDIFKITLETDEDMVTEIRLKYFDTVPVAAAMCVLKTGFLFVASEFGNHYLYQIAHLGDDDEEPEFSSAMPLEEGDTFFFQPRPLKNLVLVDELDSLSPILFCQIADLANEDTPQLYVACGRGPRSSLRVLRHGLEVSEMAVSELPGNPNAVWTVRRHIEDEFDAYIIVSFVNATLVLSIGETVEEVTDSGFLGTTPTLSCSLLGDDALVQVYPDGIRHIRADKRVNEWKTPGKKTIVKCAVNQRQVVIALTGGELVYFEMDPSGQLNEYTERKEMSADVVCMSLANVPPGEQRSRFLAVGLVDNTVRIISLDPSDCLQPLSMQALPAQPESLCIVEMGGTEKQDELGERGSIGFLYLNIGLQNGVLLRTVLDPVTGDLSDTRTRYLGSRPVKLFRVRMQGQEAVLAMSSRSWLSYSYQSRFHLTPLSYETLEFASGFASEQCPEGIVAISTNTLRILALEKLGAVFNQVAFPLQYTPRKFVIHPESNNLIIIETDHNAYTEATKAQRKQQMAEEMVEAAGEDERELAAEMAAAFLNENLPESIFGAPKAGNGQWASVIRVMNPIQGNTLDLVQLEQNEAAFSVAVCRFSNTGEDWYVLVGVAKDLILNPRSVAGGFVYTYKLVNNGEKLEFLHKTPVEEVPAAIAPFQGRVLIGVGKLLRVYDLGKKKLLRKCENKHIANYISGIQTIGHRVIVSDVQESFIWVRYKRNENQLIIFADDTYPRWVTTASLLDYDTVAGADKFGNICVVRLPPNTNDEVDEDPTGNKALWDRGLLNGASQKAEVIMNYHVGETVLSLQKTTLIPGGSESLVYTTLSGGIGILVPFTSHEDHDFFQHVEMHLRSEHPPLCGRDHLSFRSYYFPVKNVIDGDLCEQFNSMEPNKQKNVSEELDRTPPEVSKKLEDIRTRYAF
An outline of the steps:
(§1)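 Free RNA oligos (0 nM to 30 μM) competed for 1 h at 4°C in HEK293-FT lysate (2.5 mg protein/well) before a 30 min, 4°C pulldown with the same oligos on NHS-Sepharose beads. Bound proteins were quantified by label-free LC-MS/MS and normalised to the control. Kd was found by multiplying EC50, from a four-parameter log-logistic fit, by a protein-dependent depletion factor.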

In another data set the target is T2, UPF1 (UniProt Q92900).
T2 sequence: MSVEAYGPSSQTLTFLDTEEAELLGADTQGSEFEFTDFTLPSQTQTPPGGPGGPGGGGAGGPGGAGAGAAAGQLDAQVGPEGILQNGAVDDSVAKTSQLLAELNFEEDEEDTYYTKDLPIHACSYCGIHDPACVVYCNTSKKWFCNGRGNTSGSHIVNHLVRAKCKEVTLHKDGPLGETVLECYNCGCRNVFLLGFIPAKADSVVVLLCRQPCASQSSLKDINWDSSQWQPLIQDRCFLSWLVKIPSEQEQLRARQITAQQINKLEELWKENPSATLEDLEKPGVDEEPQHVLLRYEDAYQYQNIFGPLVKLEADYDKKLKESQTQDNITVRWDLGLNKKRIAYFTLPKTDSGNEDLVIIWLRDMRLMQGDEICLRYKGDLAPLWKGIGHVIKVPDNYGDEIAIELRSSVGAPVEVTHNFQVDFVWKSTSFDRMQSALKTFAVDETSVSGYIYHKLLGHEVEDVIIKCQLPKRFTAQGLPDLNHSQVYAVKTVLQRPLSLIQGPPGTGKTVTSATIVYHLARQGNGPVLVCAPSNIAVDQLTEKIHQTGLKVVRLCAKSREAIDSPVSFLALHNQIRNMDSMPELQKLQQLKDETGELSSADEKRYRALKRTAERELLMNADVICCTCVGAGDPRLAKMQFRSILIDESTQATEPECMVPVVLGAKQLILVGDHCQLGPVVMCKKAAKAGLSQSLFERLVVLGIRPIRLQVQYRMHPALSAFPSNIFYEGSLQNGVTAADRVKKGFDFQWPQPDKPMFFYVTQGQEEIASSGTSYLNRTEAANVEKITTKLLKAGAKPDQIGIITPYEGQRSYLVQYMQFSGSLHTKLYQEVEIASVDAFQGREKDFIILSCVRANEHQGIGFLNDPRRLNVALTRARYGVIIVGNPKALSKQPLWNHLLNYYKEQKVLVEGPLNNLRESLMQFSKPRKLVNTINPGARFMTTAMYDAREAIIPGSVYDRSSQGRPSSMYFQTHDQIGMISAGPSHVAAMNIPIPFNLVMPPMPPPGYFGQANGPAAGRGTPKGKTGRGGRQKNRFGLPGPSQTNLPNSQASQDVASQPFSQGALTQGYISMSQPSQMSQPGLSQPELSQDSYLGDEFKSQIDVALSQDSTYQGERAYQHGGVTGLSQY
An outline of the steps:
as §1

The target of a further data set is MRPL38 (UniProt Q96DV4). An outline of the steps:
as §1

The next data set addresses HNRNPU (UniProt Q00839). Summed up: as §1
Another data set deals with RPS28 (UniProt P62857). Summed up:
as §1

The target of another data set is IGF2BP2 (UniProt Q9Y6M1). Summed up: as §1
A further data set addresses SRSF6 (UniProt Q13247). Summed up: as §1

Chain of HNRNPU (Q00839 whole entry): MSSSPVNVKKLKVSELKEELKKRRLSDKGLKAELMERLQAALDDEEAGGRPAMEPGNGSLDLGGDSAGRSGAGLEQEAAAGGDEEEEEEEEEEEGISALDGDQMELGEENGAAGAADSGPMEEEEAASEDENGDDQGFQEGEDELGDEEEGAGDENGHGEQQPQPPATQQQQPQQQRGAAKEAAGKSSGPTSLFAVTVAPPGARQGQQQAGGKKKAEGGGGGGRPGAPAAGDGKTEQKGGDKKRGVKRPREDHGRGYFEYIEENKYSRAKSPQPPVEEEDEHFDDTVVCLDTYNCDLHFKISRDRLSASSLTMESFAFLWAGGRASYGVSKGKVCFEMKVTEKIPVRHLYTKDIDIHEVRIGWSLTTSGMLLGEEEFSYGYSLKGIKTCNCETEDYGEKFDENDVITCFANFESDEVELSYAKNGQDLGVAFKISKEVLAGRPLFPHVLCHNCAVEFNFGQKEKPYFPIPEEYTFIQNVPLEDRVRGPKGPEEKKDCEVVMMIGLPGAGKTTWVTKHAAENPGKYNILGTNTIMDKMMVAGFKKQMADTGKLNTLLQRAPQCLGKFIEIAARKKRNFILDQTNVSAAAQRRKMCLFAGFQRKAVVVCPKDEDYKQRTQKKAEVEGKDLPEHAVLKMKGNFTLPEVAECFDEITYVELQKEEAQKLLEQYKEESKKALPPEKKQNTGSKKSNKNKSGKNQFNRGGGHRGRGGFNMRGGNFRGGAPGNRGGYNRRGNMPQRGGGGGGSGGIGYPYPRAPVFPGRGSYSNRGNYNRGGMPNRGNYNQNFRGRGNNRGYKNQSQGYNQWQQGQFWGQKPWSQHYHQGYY
Chain of SRSF6 (Q13247 whole entry, looked up): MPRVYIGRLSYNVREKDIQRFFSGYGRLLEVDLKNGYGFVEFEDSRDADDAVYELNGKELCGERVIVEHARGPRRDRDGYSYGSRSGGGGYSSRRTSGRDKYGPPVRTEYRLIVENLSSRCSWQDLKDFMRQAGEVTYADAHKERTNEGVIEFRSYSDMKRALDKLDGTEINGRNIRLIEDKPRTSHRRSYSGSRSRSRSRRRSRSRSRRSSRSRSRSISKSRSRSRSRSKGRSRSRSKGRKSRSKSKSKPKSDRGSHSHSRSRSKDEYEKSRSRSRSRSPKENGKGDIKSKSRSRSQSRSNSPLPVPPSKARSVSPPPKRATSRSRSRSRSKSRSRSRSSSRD
Chain of IGF2BP2 (Q9Y6M1 whole entry): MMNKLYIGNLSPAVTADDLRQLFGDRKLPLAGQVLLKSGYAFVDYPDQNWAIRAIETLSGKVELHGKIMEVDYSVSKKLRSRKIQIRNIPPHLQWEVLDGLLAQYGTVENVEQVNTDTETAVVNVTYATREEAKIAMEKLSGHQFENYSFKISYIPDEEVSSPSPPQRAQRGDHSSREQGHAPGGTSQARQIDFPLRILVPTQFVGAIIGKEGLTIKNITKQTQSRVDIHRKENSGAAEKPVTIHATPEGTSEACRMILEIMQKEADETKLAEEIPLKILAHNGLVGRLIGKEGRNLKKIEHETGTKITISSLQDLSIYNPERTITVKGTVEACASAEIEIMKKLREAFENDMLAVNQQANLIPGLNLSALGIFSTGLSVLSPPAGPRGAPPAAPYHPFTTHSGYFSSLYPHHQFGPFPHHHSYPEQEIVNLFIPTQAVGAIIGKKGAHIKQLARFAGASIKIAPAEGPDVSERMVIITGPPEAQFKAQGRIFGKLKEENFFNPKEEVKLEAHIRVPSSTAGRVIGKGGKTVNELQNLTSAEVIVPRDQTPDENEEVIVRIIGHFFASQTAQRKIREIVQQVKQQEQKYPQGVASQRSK

For AAUAAA, the Kd was determined as 669 nM in the data set with SF3B3 and 2640 nM in the data set with UPF1.
For the sequence CUGUCCU, the dissociation constant Kd with MRPL38 was 40.7 nM; in the data set with HNRNPU, 90.1 nM; with RPS28, 115 nM; with IGF2BP2, 924 nM; in the data set with SRSF6, 287 nM.
